Sequences and labels used below:
B1: ILLELFTHV (SEQ ID NO: 25) (peptide)
peptide: ILLELFTHV
notes: synthetic peptide; source genes FBXO6, FBXO44
B2: GLGPNLVGV (SEQ ID NO: 23) (peptide)
peptide: GLGPNLVGV
notes: synthetic peptide; source genes SLC25A36, SLC25A33

The target in the assay is HLA-A*02:01 (peptide-receptive MHC class I molecule, heavy chain with beta-2-microglobulin) (human). Nature of the assay: UV-ligand exchange, anti-b2m ELISA; peptide exchange yield grade (>10% = +; >20% = ++; >50 = +++; >75% = ++++). The text has this:
Candidate peptides for T cell based therapies according to the present invention were further tested for their MHC binding capacity (affinity). The individual peptide-MHC complexes were produced by UV-ligand exchange, where a UV-sensitive peptide is cleaved upon UV-irradiation, and exchanged with the peptide of interest as analyzed. Only peptide candidates that can effectively bind and stabilize the peptide-receptive MHC molecules prevent dissociation of the MHC complexes. To determine the yield of the exchange reaction, an ELISA was performed based on the detection of the light chain (β2m) of stabilized MHC complexes. The assay was performed as generally described in Rodenko et al. (Rodenko et al., 2006).
96 well MAXISorp plates (NUNC) were coated over night with 2 ug/ml streptavidin in PBS at room temperature, washed 4× and blocked for 1 h at 37° C. in 2% BSA containing blocking buffer. Refolded HLA-A*02:01/MLA-001 monomers served as standards, covering the range of 15-500 ng/ml. Peptide-MHC monomers of the UV-exchange reaction were diluted 100 fold in blocking buffer. Samples were incubated for 1 h at 37° C., washed four times, incubated with 2 ug/ml HRP conjugated anti-β2m for 1 h at 37° C., washed again and detected with TMB solution that is stopped with […]. Absorption was measured at 450 nm. Candidate peptides that show a high exchange yield (preferably higher than 50%, most preferred higher than 75%) are generally preferred for a generation and production of antibodies or fragments thereof, and/or T cell receptors or fragments thereof, as they show sufficient avidity to the MHC molecules and prevent dissociation of the MHC complexes.
(In general: An ELISA detects its analyte on a solid surface through an enzyme-linked reagent.)
In the case of ALQNKVVAL (synthetic peptide; source gene NXNL2) [ALQNKVVAL (SEQ ID NO: 13)], the peptide exchange yield was 50 to 75%.
Then SLLSDIIAL (synthetic peptide; source gene PIGQ) [SLLSDIIAL (SEQ ID NO: 36)], with 50 to 75%; and YLETMNITL (synthetic peptide; source gene PGM2L1) [YLETMNITL (SEQ ID NO: 19)], with 50 to 75%; and SLFDEVRQI (synthetic peptide; source gene STX18) [SLFDEVRQI (SEQ ID NO: 5)], with more than 75%.
Consider VIANEIEKV (synthetic peptide; source gene APOL4) [VIANEIEKV (SEQ ID NO: 43)], for which the peptide exchange yield fell in the range of 50 to 75%.
GLLSVELRV (synthetic peptide; source gene DCHS2) [GLLSVELRV (SEQ ID NO: 15)] displayed a peptide exchange yield of more than 75%.
In turn, TLLDRVAVI (synthetic peptide; source gene FRG1B) [TLLDRVAVI (SEQ ID NO: 30)] showed a peptide exchange yield of 50 to 75%.
In turn, VLGPEGQLV (synthetic peptide; source gene GLYATL2) [VLGPEGQLV (SEQ ID NO: 21)] yielded a peptide exchange yield of 50 to 75%.
Take ALLGFVTDL (synthetic peptide; source gene ATP2B4) [ALLGFVTDL (SEQ ID NO: 20)]: the peptide exchange yield was more than 75%.
Then VLLDIFTGV (synthetic peptide; source gene LIG3) [VLLDIFTGV (SEQ ID NO: 2)], with more than 75%; and YIDDIFSGV (synthetic peptide; source gene TEX9) [YIDDIFSGV (SEQ ID NO: 41)], with more than 75%; and VLLATVTEL (synthetic peptide; source gene SLC35E1) [VLLATVTEL (SEQ ID NO: 37)], with 50 to 75%.
Molecule SVMELLQGV (synthetic peptide; source gene TRIM5) [SVMELLQGV (SEQ ID NO: 8)] yielded a peptide exchange yield of more than 75%.
In turn, ALAPSEGVQAA (synthetic peptide; source gene MSX1) [ALAPSEGVQAA (SEQ ID NO: 12)] came in with a peptide exchange yield of more than 75%.
VMHDSSFSV (synthetic peptide; source gene ADNP2) [VMHDSSFSV (SEQ ID NO: 53)] gave a peptide exchange yield of more than 75%.
Under RILDIDIPLSV (synthetic peptide; source gene TFCP2L1) [RILDIDIPLSV (SEQ ID NO: 38)] stands 50 to 75%; under ALDPIIHGL (synthetic peptide; source gene PTPRG) [ALDPIIHGL (SEQ ID NO: 11)], more than 75%.
The molecule IGIGPVLNI (synthetic peptide; source gene TMLHE) [IGIGPVLNI (SEQ ID NO: 29)] yielded a peptide exchange yield of 10 to 20%.
TLLPTLYEI (synthetic peptide; source gene RNF180) [TLLPTLYEI (SEQ ID NO: 35)]: the peptide exchange yield lay in the range of 50 to 75%.
Then ILDAQTAFV (synthetic peptide; source gene ABCC1) [ILDAQTAFV (SEQ ID NO: 24)], with 50 to 75%; and B1, with more than 75%.
In turn, GLLGGVIMMV (synthetic peptide; source gene SLC39A7) [GLLGGVIMMV (SEQ ID NO: 40)] yielded a peptide exchange yield of more than 75%.
In turn, ALLELLHEL (synthetic peptide; source gene LEMD2) [ALLELLHEL (SEQ ID NO: 49)] displayed a peptide exchange yield of more than 75%.
In the case of KLWEESTAQV (synthetic peptide; source gene C1orf173) [KLWEESTAQV (SEQ ID NO: 17)], the peptide exchange yield fell in the range of 50 to 75%.
GLDGATYTV (synthetic peptide; source gene SEMA4C) [GLDGATYTV (SEQ ID NO: 3)] yielded a peptide exchange yield of 50 to 75%.
On to FLVDSLISA (synthetic peptide; source gene HOXD10) [FLVDSLISA (SEQ ID NO: 14)], for which the peptide exchange yield was more than 75%.
As for SILSLLIKL (synthetic peptide; source gene UBR3) [SILSLLIKL (SEQ ID NO: 7)], the peptide exchange yield lay in the range of 20 to 50%.
ALDGKIYEL (synthetic peptide; source gene ARHGAP5) [ALDGKIYEL (SEQ ID NO: 39)] showed a peptide exchange yield of 50 to 75%.
Molecule AIAGRLLGV (synthetic peptide; source gene CLCN5) [AIAGRLLGV (SEQ ID NO: 34)] gave a peptide exchange yield of more than 75%.
Under GLIENTYQL (synthetic peptide; source gene RNF175) [GLIENTYQL (SEQ ID NO: 32)] stands 50 to 75%.
In turn, KLNSSIQYV (synthetic peptide; source gene PKHD1L1) [KLNSSIQYV (SEQ ID NO: 16)] showed a peptide exchange yield of 50 to 75%.
Turning to NMDDVIYYV (synthetic peptide; source gene RNF145) [NMDDVIYYV (SEQ ID NO: 46)], the peptide exchange yield was 50 to 75%.
Molecule SMTTNLDLKV (synthetic peptide; source gene TMEM202) [SMTTNLDLKV (SEQ ID NO: 33)] registered a peptide exchange yield of 20 to 50%.
Consider ALISEKLETL (synthetic peptide; source gene DNAJC10) [ALISEKLETL (SEQ ID NO: 52)], for which the peptide exchange yield was 50 to 75%.
As for KLLDNLHDL (synthetic peptide; source gene PGR) [KLLDNLHDL (SEQ ID NO: 1)], the peptide exchange yield was more than 75%.
Regarding TVPPVFVSV (synthetic peptide; source gene KCNMA1) [TVPPVFVSV (SEQ ID NO: 51)], the peptide exchange yield is 50 to 75%.
Under VLVSSVLGV (synthetic peptide; source gene SIGIRR) [VLVSSVLGV (SEQ ID NO: 22)] stands 50 to 75%; under AILDVVVNL (synthetic peptide; source gene RFX3) [AILDVVVNL (SEQ ID NO: 10)], more than 75%; under TLSTVIATV (synthetic peptide; source gene ATN1) [TLSTVIATV (SEQ ID NO: 50)], more than 75%.
For the molecule SLLSELVEA (synthetic peptide; source gene KLHDC5) [SLLSELVEA (SEQ ID NO: 6)], the peptide exchange yield is more than 75%.
Take ALLTAVTNV (synthetic peptide; source gene LEMD2) [ALLTAVTNV (SEQ ID NO: 31)]: the peptide exchange yield was 50 to 75%.
Then RLDIQGTGQLL (synthetic peptide; source gene PIGR) [RLDIQGTGQLL (SEQ ID NO: 4)], with 50 to 75%.
As for GLVEQLYDL (synthetic peptide; source gene NOC2L) [GLVEQLYDL (SEQ ID NO: 47)], the peptide exchange yield is 50 to 75%.
Then TLSDVVVGL (synthetic peptide; source gene ELP4) [TLSDVVVGL (SEQ ID NO: 54)], with 50 to 75%; and ILAETQPEL (synthetic peptide; source gene STX18) [ILAETQPEL (SEQ ID NO: 48)], with 50 to 75%.
Take B2: the peptide exchange yield was more than 75%.
Under VLNPETTVV (synthetic peptide; source gene PAPSS1) [VLNPETTVV (SEQ ID NO: 27)] stands 50 to 75%.
The molecule SLYPGTETM (synthetic peptide; source gene SVIL) [SLYPGTETM (SEQ ID NO: 9)] came in with a peptide exchange yield of 50 to 75%.
As for VLLHVSVLL (synthetic peptide; source gene ZDHHC24) [VLLHVSVLL (SEQ ID NO: 45)], the peptide exchange yield fell in the range of 20 to 50%.
Under FLSGYYVTL (synthetic peptide; source gene TMEM101) [FLSGYYVTL (SEQ ID NO: 42)] stands more than 75%; under GLDEAIRKV (synthetic peptide; source gene GLYATL2) [GLDEAIRKV (SEQ ID NO: 28)], 50 to 75%; under SVLAGVVGV (synthetic peptide; source gene GUCY1A2) [SVLAGVVGV (SEQ ID NO: 26)], more than 75%.
FLNGLEILL (synthetic peptide; source gene MDN1) [FLNGLEILL (SEQ ID NO: 44)]: the peptide exchange yield was more than 75%.

Source of the values: patent publication US20170260249A1 (IMMATICS BIOTECHNOLOGIES, published 2017).
